Measured values taken from publication PMC9463662, “Selection of DNA aptamer and its application as an electrical biosensor for Zika virus detection in human serum”.

How the values were obtained:
[1] = biological target: T1, Zika virus envelope protein (Zika virus, UniProt A0A221S5X1 1-403); assay: bead-based fluorescence binding assay; protein on streptavidin beads; conditions: protein: commercial
[2] = biological target: albumin (bovine serum albumin in sensor test) (UniProt P02769 25-607); assay: capacitance biosensor; bovine serum albumin
Sequence of albumin (bovine serum albumin in sensor test) (P02769 25-607): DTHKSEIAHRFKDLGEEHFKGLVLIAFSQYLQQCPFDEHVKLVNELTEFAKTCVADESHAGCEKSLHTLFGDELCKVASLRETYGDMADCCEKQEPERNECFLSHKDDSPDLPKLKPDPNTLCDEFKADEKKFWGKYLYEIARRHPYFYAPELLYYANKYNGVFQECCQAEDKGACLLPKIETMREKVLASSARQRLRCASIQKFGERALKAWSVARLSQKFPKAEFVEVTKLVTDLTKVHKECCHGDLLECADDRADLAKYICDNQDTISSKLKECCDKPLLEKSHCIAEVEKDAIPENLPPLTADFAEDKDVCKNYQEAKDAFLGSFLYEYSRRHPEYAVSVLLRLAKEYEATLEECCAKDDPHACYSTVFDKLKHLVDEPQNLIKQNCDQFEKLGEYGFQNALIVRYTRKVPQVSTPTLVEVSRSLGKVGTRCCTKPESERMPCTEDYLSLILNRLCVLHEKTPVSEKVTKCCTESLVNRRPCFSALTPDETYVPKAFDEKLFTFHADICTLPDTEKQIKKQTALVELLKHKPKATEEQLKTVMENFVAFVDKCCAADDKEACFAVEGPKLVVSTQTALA

[3] = biological target: T1, Zika virus envelope protein; assay: capacitance biosensor; aptamer/MXene on Au micro-gap electrode; DIW or 10% human serum; LOD 38.14 pM in serum; conditions: protein: commercial

Binder	Kd [1]	binding result [2]	binding result [3]
Zika-25 aptamer, 5'-FAM (ssDNA) DNA: TGACACCGTACCTGCTCTAAGCACGCCAAGGGACTATAGGTTGACACCGTACCTGCTCTAAGCACGCCAAGGGACTAT	226 ± 9.6 nM	–	–
Zika-07 (Zika-7) aptamer, 5'-FAM (ssDNA) DNA: TGACACCGTACCTGCTCTAGTGCGCACTGAACGATCCTGCGTCAAGTTCAAGGTTGTGAAGCACGCCAAGGGACTAT	107 ± 1.9 nM	–	–
thiol-modified Zika-07 aptamer (ssDNA, 5'-SH) DNA: TGACACCGTACCTGCTCTAGTGCGCACTGAACGATCCTGCGTCAAGTTCAAGGTTGTGAAGCACGCCAAGGGACTAT	–	no binding	binds
